The values below come from paper doi:10.1101/315713 (bioRxiv, 2018).

This series concerns the molecule itself.

B1: Dipeptidase 3 (DPEP3), native, from testicular tissue and spermatozoa lysates (natural protein, UniProt Q9H4B8 36-463, looked up)
chain: AETTPGAPRALSTLGSPSLFTTPGVPSALTTPGLTTPGTPKTLDLRGRAQALMRSFPLVDGHNDLPQVLRQRYKNVLQDVNLRNFSHGQTSLDRLRDGLVGAQFWSASVSCQSQDQTAVRLALEQIDLIHRMCASYSELELVTSAEGLNSSQKLACLIGVEGGHSLDSSLSVLRSFYVLGVRYLTLTFTCSTPWAESSTKFRHHMYTNVSGLTSFGEKVVEELNRLGMMIDLSYASDTLIRRVLEVSQAPVIFSHSAARAVCDNLLNVPDDILQLLKKNGGIVMVTLSMGVLQCNLLANVSTVADHFDHIRAVIGSEFIGIGGNYDGTGRFPQGLEDVSTYPVLIEELLSRSWSEEELQGVLRGNLLRVFRQVEKVREESRAQSPVEAEFPYGQLSTSCHSHLVPQNGHQATHLEVTKQPTNRVPWRS
The term stoichiometry N denotes the number of molecules, sites or subunits per partner or assembly. As to B1, the “stoichiometry N” value turned out to be 2.

B2: DPEP3, free soluble native form in seminal plasma (natural protein, human (endogenous in seminal plasma), UniProt Q9H4B8 36-463, looked up)
chain: B1 chain
For B2, the “stoichiometry N” value is 2.
